The record followed here is article PMC4039143, “Polyubiquitylation of AMF requires cooperation between the gp78 and TRIM25 ubiquitin ligases” (Oncotarget, 2013).

This test deals with T1, His-tagged AMF expressed in and purified from E. coli (human, UniProt P06744 1-558).
T1 construct: autocrine motility factor (AMF) / phosphoglucose isomerase (PGI); the E. coli expression construct is not described; also called his-AMF; PGI; source: E. coli (BL21), purified (Ni-NTA agarose, PD-10 desalting); not shown: His, N-terminal, kept
Nature of the test: pull-down; GST fusions held on glutathione-agarose and washed; incubated with purified his-AMF or TRIM25 in buffer D (50 mM Tris/HCl pH 7.5, 100 mM NaCl, 1 mM DTT, 0.1% Tween20), 3 hr at 4 °C; retained protein detected by immunoblot. To be noted: both partners purified. In general terms: Immunoblotting shows a protein as a band on a membrane.

B1: GST fusion bearing the entire C-terminal (cytoplasmic) domain of gp78 (domain or fragment, human, UniProt Q9UKV5 309-643, looked up)
chain: IRRHKNYLRVVGNMEARFAVATPEELAVNNDDCAICWDSMQAARKLPCGHLFHNSCLRSWLEQDTSCPTCRMSLNIADNNRVREEHQGENLDENLVPVAAAEGRPRLNQHNHFFHFDGSRIASWLPSFSVEVMHTTNILGITQASNSQLNAMAHQIQEMFPQVPYHLVLQDLQLTRSVEITTDNILEGRIQVPFPTQRSDSIRPALNSPVERPSSDQEEGETSAQTERVPLDLSPRLEETLDFGEVEVEPSEVEDFEARGSRFSKSADERQRMLVQRKDELLQQARKRFLNKSSEDDAASESFLPSEGASSDPVTLRRRMLAAAAERRLQKQQTS
notes: Expression vector provided by A Weissman; also called GST-gp78C; gp78C; source: E. coli (BL21), lysate applied to glutathione-agarose and washed; also purified on glutathione-agarose
Consider B1, for which the binding result is listed as “binds”.
